Reference: patent US20240368275A1 (ELPIS BIOPHARMACEUTICALS, published 2024)

Molecular target: T1, CD3 on Jurkat cells (UniProt P07766 23-207, limits assumed)
T1 construct: whole, on cells; the whole CD3/TCR complex stands on the cells; also called Jurkat CD3
Experiment: flow cytometry on Jurkat cells
Method: Jurkat cells were plated at 100,000 cells/well in a 96-well plate with 50 μL of full media. Anti-Nectin4/CD3 antibodies were 3-fold serial titrated from 20 nM. 50 μL was added to the cells and incubated for 1 hours at room temperature with shaking. Samples were washed one time with flow buffer. […] Samples were washed once with flow buffer. Samples were stained with 100 uL Zombie Fixable Viability Dyes at 1:800 dilution per well and incubated in dark at room temperature for 30 mins. Samples were spun down at 1300 rpm for 5 minutes and washed once with 200 uL flow buffer. Reconstituted samples in 200 uL of flow buffer and read on Attune NxT cytometer. EC50 values for CD3 binding were calculated using Prism 8.1 software.
Similar methods of above mentioned were used to measure the binding activities of anti-Nectin4/CD3/IL-2 complexes to CHO/Nectin4 and Jurkat cells, respectively.

T1 sequence (P07766 23-207 limits assumed): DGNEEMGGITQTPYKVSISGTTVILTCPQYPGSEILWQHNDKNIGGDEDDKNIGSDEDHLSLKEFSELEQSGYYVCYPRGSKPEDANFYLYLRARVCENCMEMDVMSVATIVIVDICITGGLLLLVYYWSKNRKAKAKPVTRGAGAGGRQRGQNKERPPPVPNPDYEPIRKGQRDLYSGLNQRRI

B1: EP697/EP378/EP289 anti-Nectin4/CD3 bispecific antibody (bispecific antibody)
heavy 1: EVQLVQSGAEVKKPGASVKVSCKASGYTFTGYYMHWVRQAPGQGLEWMGRINPNSGGTNYAQKFQGRVTMTRDTSISTAYMELSGLRSDDTAVYFCARVTYNIGWYIDYWGQGTLVTVSSASTKGPSVFPLAPSSKSTSGGTAALGCLVKDYFPEPVTVSWNSGALTSGVHTFPAVLQSSGLYSLSSVVTVPSSSLGTQTYICNVNHKPSNTKVDKKVEPKSCDGGGGSGGGGSEVQLVESGGGLVQPGGSLRLSCAASGFTFNTYAMNWVRQAPGKGLEWVARIRSKANAYATYYAASVKGRFTISRDDSKNSLFLQMNSLKTEDTAVYYCVRHGNFGNSAVSWFAYWGQGTLVTVSSGGGGSGGGGSGGGGSGGGGSQAVVTQEPSLTVSPGGTVTLTCASSTGAVTTSNYANWVQEKPDHLFTGLIGGTNKRAPGVPARFSGSLLGGKAALTLSGVQPEDEAEYYCALWYSNLWVFGGGTKLTVLEPKSCDKTHTCPPCPAPEAAGGPSVFLFPPKPKDTLMISRTPEVTCVVVDVSHEDPEVKFNWYVDGVEVHNAKTKPREEQYNSTYRVVSVLTVLHQDWLNGKEYKCKVSNKALGAPIEKTISKAKGQPREPQVCTLPPSRDELTKNQVSLSCAVKGFYPSDIAVEWESNGQPENNYKTTPPVLDSDGSFKLVSKLTVDKSRWQQGNVFSCSVMHEALHNHYTQKSLSLSPGK
heavy 2: not shown
light: QAVVTQPPSVSVAPGKTATITCGGNNIGSKGVHWYQQKPGQAPVLVIYYDTDRPSGIPERLSGSNSGNTATLTISRVEAGDEADYYCQVWDSSSDHPVFGGGTKLTVLGQPKANPTVTLFPPSSEELQANKATLVCLISDFYPGAVTVAWKADGSPVKAGVETTKPSKQSNNKYAASSYLSLTPEQWKSHRSYSCQVTHEGSTVEKTVAPTECS
notes: EP697: two residue mutations within HCDR2 and a single point mutation within HCDR3 of the anti-CD3 scFv of EP500; also called EP697/378/289
binding result: no binding
